Literature values as cited in paper PMC6426755.

Target: CCL21 (Homo sapiens) (UniProt O00585)
Assay: SPR (Biacore)

Sequence of UniProt O00585 (O00585 24-134): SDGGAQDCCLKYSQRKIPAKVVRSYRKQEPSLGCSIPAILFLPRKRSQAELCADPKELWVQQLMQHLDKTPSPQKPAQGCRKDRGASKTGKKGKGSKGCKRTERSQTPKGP

Q: With podoplanin (from UniProt Q86YL7) as the substance, how does the Kd read?
A: 70 nM
